Experimental findings from the DeepSol protein solubility set are described below.

The nature of this data set: soluble on expression in E. coli; label from the status in PepcDB or PDB records.
As for “MRLILLALLALVFPAVAQEDMPAKVWLEKMSQALKEKEFKASIIQLQADHIRPLVYLHGKVNNQEVAFLEYLNGPPKNAVRVGNRVTFIEHDQPAYSILSNHIQGVWPAAFSSQMSDLEVGYQFVMGGRTRIAGRPGQMIRLLPNDEYRYGFQIWLDMDTYLPLRYDMLTQDKQLLEQLMVIELIEFSEPPSILQEAYKQEWPAVIDQAERQDGQNWQFSWLPAGFSVVVRDHHRLIGSHEAVEYIALTDGLANISIYVARAGSTPLPEELITRNGLSLVAEKVGNAEVVAVGKVPTETLARIAKSLMLK”, the “soluble on expression in E. coli” value is given as “not soluble”.

Consider “MRLNKRLPAALSGLLLSAALLAGCSTSGTAETTTTTVSSAAASTTTSTSSASSSSSSSSSSSSSDSSTTAETISNTAEAAQAFLSTLSTEEQDAVLYDYDAEEKSTGWSNFPVTFVQRSGVNLTDLTEEQQAAALNVLKNLLNDDAYQMIEDIMASDQYLNDESNTTEDSLGQYYIAFFGDPSSDSDWSIQFGGHHIGINTTFSDGAITFAPTHLGTQPSEWTNEDGETVAALSNMYETAFAFYDSLAEEQQAQLYQGEELDSMVCAPGSTCDYPTGTGLKGSDLTDEQKELLIDVIANWVGLADEETTETELDAIRETLDDTYINWSGATEYDTSTGDGIYFQISGPKVYIEFANQQGSAGADIDGVITAGWGHIHTIYRDPTNDYANSVTQEAASGMMGGGPGGNGGEMPSGDMPTGEMPSGAPSNLEHHHHHH”, for which the “soluble on expression in E. coli” value was “not soluble”.

As for “MRLPHQLTGSRFFSFSDEGEFLKSVSAVVDEEEFVRIGSLVQAGLMPITSKEVLATMLGVNPGIIWSLENKPERYYRRFKIPKGKGEREIVAPKVGLKVIQKWFSVQLQDCARIDDHVFGFVPGRSHIDAASVHTNANWVYSIDLTNFFPSTPINWVASSLINIGYDADSADRISKLCCYRGALAQGSPASPVLSNISMRGIDAALGALAAEMDVRVTRYADDITFSAAGEFPQVLPERLESLFSQTPWKISQEKTYFSEAPVRLKVHGLVVNGNTVKLTKGYRNKLRAYRHVLQTNRCRQEDLARLSGHVRYASQVSSRDDLEHHHHHH”, the “soluble on expression in E. coli” value was “not soluble”.

On to “MRLPILLLSILGLSLGFGHDSPSSPAANQYATELADRFFTKFIKAVKYSDVRVMDSLLLSSNENLSSKNMIREFYKYPNTKIHDARFVGRNIATTVFFPLSPHGYDIPFKSADFILKKRFMGDWAITSMENLKYNSGKG”, for which the “soluble on expression in E. coli” value is reported as “not soluble”.

In the case of “MRLTEEEVQALLEKADGWKLADERWIVKKYRFQDYLQGIEFVRRIAAISENANHHPFISIDYKLITVKLSSWRAKGLTKLDFDLAKQYDEVYNQMKQGEGE”, the “soluble on expression in E. coli” value is on record as “soluble”.

Consider “MRMNLTNHFLVAMPGMKDPYFQNSVIYVCEHNEEGAMGLMINAPVDITVGNMLKQVDVQPVHPRLFEASLDRPVYNGGPISEDRGFILHKPKDYYESSIQMTDDLAVTTSRDILSVLGTEAEPSDYLVALGYSGWSAGQLENELVENSWLTIEATPEIIFDTPITERWKKAVEKLGIDPSQLSADAGHALEHHHHHH”, for which the “soluble on expression in E. coli” value is “soluble”.

Regarding “MRNIAVILAGGSGQRLGENIPKQFLKIAGKKVIEHTITVFQNHSLIDEIVVVVHPDYIRDVEDISLRNSFNKLKKILLGGKERYHSSLAAINAYDEEVNLLFHDSVRPLVNERIINDCIRALLTYNAVDVAIPTTDTIIQVDDNNEIVKIPSRILLRNGQTPQAFKRSVIKAAYEKALLDPLFKTTDDCGVVLKYLPDESIYVVNGEQFNMKLTYKEDIFLLDKLFQLRSIRNQPTLLEKSEMEELQGKVVVVFGGTYGIGQDICEICREYKTSLYVYSRSTGVDVSNSQSVRRVLSEIFDKEGRIDWIVNTAGILDKQPLANMSYEAVHQSIDVNYLGNIIVAKESFFYLKESKGSLLFFTSSSYTRGRALYSLYSSSKAAIVNFVQALSEEWFEYGIRVNCINPERTKTPMRIQNFGNEPEDTLLEPKVVAIVSVNTLLSEMTGEVVDVKRLEHHHHHH”, the “soluble on expression in E. coli” value is reported as “not soluble”.

As for “MRNSLFTTLFFGLAALVMVLNAQYTSELEEDEKRGGARAMLHKRGGARAFSADVGDDYKRGGARAFYDEKRGGARAFLTEMKRGGARVFQGFEDEKRGGARAFMMDKRGGGRAFGDMMKRGGARAFVENSKRDEDWVIRPFEDDRLEKRGGGRSFPVKPGRLDD”, the “soluble on expression in E. coli” value was “not soluble”.

On to “MRNTKIRAVQYGCGKMSKVILNYLVDHGVEIVGAIDKNPAVVGQDIGDFAGFGHKTGIIISDKADQVFDNCDADIAIVTIFSYMPEMYEFYEMAIKHGVNVISTCEEAIYPWTTSPSETNRLDKLAKENHVTIMGSGMQDIYWINMPCLAMAGMNKIKKVRGVVSYNVEDYGLALAEAHGAGYDLERFERDIASAESLPSYMWNAAEAICSKMNWTIQSINQKSVPYILDEDVYSETLGRTIPAGQVTGMSAVTKVQTHQGIDLEVECIGKVYRQDDGDMCDWEITGEPDLIFSVNKPDTVALTCGTIVNRIPTVLDAPAGYITSEKARLITYPSYPLHTYVEK”, for which the “soluble on expression in E. coli” value is “not soluble”.

As to “MRPQIMPFYIEMGKGDGGITGEDILQNWMLKSNLKNVEILEELPLRPTKLVVAISEEIYPDVYTIEDFKEKVGDREVFIASEFPEIARKYAEKHGLNAIVFDPIGKTEAALLPPMPEADLIIEITEFGTTLKENMCRIIDLVMDKVHSVFIVNKESLKDEEKKQVMENLVTDLKEVIESRNLVSFYFNVPNEDDLRRIIDYLTENGFDPTISPLAKGGAAVHIIVDRSRVKFLKPIIRGMGAKRIATSPVITSGTNRAAQQKPFYLLSGIQREFPSASPFF”, the “soluble on expression in E. coli” value was “not soluble”.

For “MRPTRKCEFCGKTFVPRSGMQKYCSEECQAETKRLRKKRQQDLINGIEPIMDLQHQEYLTFSKAAILMGCTRQYIYKLVANGKLKASRLSSRMAFVRKADIEKMFEGHPYKRVVPASKSKLSKKAKAEKPTQNQEPTKGKEENDVLDYYSGEEVMSIYKVKKSWLYTSAKRNQIPMCRIAGKNYYSKRHIDEFFGTAVDLNSITEWVTADDVEEAFSMSKSALRAYTYRHKIPTKREYGRTYYSKEHLEELRRTDLMSDDSYYTTEQVQQIYGLTSANICHIVRVHHISKVKVGVKNLLLKTDVERAMAERAAKGL”, the “soluble on expression in E. coli” value was “not soluble”.

Turning to “MRQDDLKLLGKIVTTHGIRGQLKVASFSGEFDTILSLETVVLKGKDGRMETFPVARATVHHDRVLLSLTPFTNINEVLHLISAVSYAHRDQFPPLEEGEYYWCDLIGLQVVTAAGTVIGRLDSILPTESHDVYVVRGADREYLIPAVEDVVVQVDLEAGTMTVSPPEGLLDLLEHHHHHH”, the “soluble on expression in E. coli” value is “soluble”.

Take “MRQQTCTTVTLRQRPIRNGRISLYLDYYPAVRNPKTMKLSRREYLGFYIYATPKNAIELDYNNEILAKAELIRCRRQEAVINEEFGFMDRHKMRADFMAYFKEVCRKKDHKWHIVYLHFEKFVNGKCMFGEITVDLCNRFRDYLLHARQLKHTDKMVSRNSAASYFSLFRGVLKLAYRDKYLRENPNDFLEKIESRDIHKEFLTQDELKTLASTPCDIPVLRNASLFSCLTGLRISDILNLKWENLCTAPDLGHCIRLRTQKTQTEALLPISYEAYALCGEPGTGKVFKELRRCMTGYPLKAWIKKAGIQKHITFHCLSHSKLFYLLNISELSILKNVTANDLETSYILFLSQLCNIQRTL”: the “soluble on expression in E. coli” value is on record as “not soluble”.

On to “MRQRKDMPHNRLQTGGMTDEPTDIKAEAKPARTSDLRGFIRLLEERGQLRRIRQPVSLVHEITEIHRRVLADGGPALLFEQPVDHEGKVRKMPLLANLFGTRQRIEWGLGLETGGLPALGQKLTELREPRPPKSMAEAWSKLPLLRAALSMRQRNVSRAPVQEKVLTRDAVDLARLPVQWCWPGEPAPLITWPLVITRSPDDPDDINVGIYRMQVLGPDRVIMRWLAHRGGAHHHRLWQARGLDMPVTVAIGADPATILAAVMPLPDHISELGFSGLLRGAKSRIAKALTVPMPVPANAEIVLEGTVSATETAMEGPYGDHTGYYNSVEAFPVMTLSAITMRRDPIYLSTYTGRPPDEPSVLGEAMLEIFLPLVKRQFAEIVDLWMPPEACSYRVMVASIDKRYPGQAKRVMMGLWSMLPQFSYVKLIILVDPDIDVRSWTDVVWALSTRFDASRDTTIINDTPIDYLDFASPKAGLGGKMGLDATRKLPPETEREWGRVLSMTPDVVAKVDLVWRDLGLGERPVDKLAAALEHHHHHH”, for which the “soluble on expression in E. coli” value is “not soluble”.

In the case of “MRREALKTAVLKIMIEKMELKNVTHLEETMRLNQDLYIDSVMMLQLIVYIEMDVKLCVPEDEVDPKAFLTVGSLLDFMEELEPLQEVNVNN”, the “soluble on expression in E. coli” value is reported as “not soluble”.

Turning to “MRRSNEPTKRKSTTGHGDYAEHKKRKSMSKEATPVLEENLTPDVMINNLHEIVTQILENQELPETAIIELEGFDATAATMEEYMQKREETRKLVTDSEFFDQKTELNLSVASLAGAQVEVDKRVTTRGMSRKLHDECGINEKDILYQGLDYHGTESRVSKELRDSRQASIIESCVDFQKQIQWKIGIMEKVKAKSGRSYPMSDGPSVRTRGGQDKQREEMKKQQKELEKSKKQRKTRAAGEQDPFKTPQKKIEFNALDERRIIENYQLEVASEIRTHRPFLSRSIAPVPFNIDILDDEEEEMEIS”, the “soluble on expression in E. coli” value is recorded as “not soluble”.

Consider “MRRVGESSTGDRKALRSGLKRQGSADEDDIESIFSGIGSARINEPKAKKDDDESNEEKYFSVGKDGRRYHEGLPVYTTEELHLGDGGGDTEDCPIYCDCCL”, for which the “soluble on expression in E. coli” value is recorded as “not soluble”.

Consider “MRSRRVDVMDVMNRLILAMDLMNRDDALRVTGEVREYIDTVKIGYPLVLSEGMDIIAEFRKRFGCRIIADFKVADIPETNEKICRATFKAGADAIIVHGFRGADSVRACLNVAEEMGREVFLLTEMSHPGAEMFIQGAADEIARMGVDLGVKNYVGPSTRPERLSRLREIIGQDSFLISPGVGAQGGDPGETLRFADAIIVGRSIYLADNPAAAAAGIIESIKDLLNP”, for which the “soluble on expression in E. coli” value is listed as “not soluble”.

Take “MRSSNNRHEGEEAMNRTQQWMEDLQKNISDLIARSPAADVERNVRAMMTQTFARLDLITREEFEVQVDLLARARTRVDQLSAQVQQLEARLAALEAGKPQA”: the “soluble on expression in E. coli” value is “not soluble”.

On to “MRTELLSKLYDDFGIDQLPHTQHGVTSDRLGKLYEKYILDIFKDIESLKKYNTNAFPQEKDISSKLLKALNLDLDNIIDVSSSDTDLGRTIAGGSPKTDATIRFTFHNQSSRLVPLNIKHSSKKKVSIAEYDVETICTGVGISDGELKELIRKHQNDQSAKLFTPVQKQRLTELLEPYRERFIRWCVTLRAEKSEGNILHPDLLIRFQVIDREYVDVTIKNIDDYVSDRIAEGSKARKPGFGTGLNWTYASGSKAKKMQFKG”, for which the “soluble on expression in E. coli” value was “soluble”.

As to “MRTLKIEPLTKEAFAPFGDVIETAGSDYFMINNGSTRRYHKLATVETAQPEDNAIISIFSAEKLEMPLRIRMLERHPLGSQAFIPLLGNPFLVVVAPLGDVPVPGLVRAFLTNGRQGVNYHRGVWHHPVLTIEKRDDFLVVDRSGSGNNCDEHFFTEDEQLLLDPQSNQLEHHHHHH”, the “soluble on expression in E. coli” value is on record as “not soluble”.

For the sequence “MRTSNYLLSTLKETPNDAEVVSHQLMLRAGMIRKLASGLYTWLPTGLRVLRKVENIVRQEIDNAGAVETLMPVVQPFELWEETGRSEKMGPELLRFTDRHVRPFVLSPTAEEVITSLVRNEVSSYKQLPLNLYQIQTKFRDERRPRFGVMRAREFCMMDAYSFDIDKAGLEKSYQAMHDAYCKAFDRMGLEYRPVLADSGAIGGSGSQEFHVLADSGEDLIAFSTESDYAANIEKAEALAPAVERAEPTQEMTLVDTPNAKTIAELVEQHGLPIEKTVKTLFVKASDEIDAPIIALIVRGDHELNEVKAENLPQVASPLEMASEEEIRELIGAGPGSLGPVGLELPFIVDRSVAVMSDFGAGANIDGKHYFGINWGRDVELGQVEDLRNVVEGDPSPCGKGTLMLK”, the “soluble on expression in E. coli” value is “not soluble”.
